Test: soluble on expression in E. coli; label from the status in PepcDB or PDB records

Soluble on expression in E. coli, not soluble:
MGSDKIHHHHHHMNDENIQSSNYQPFPSFDDWKQIEVSLLDVIESSRHFSDLKDSTDRSALDAALERAKRAAAVDTNAIEGIFQTDRGFTHTVATQVGAWEQQMAMKGKHVKPAFDDTLEGFEYVLDAVTGRTPISQQWIRNLHAVILRSQESHEVFTAVGVQNQALQKGEYKTQPNSPQRSDGSVHAYAPVEDTPAEMARFISELESKEFLAAEKVIQAAYAHYAFVCIHPFADGNGRVARALASVFLYKDPGVPLVIYQDQRRDYIHALEAADKNNPLLLIRFFAERVTDTINSIIVDLTTPIAGKSGSAKLSDALRPTRVLPELHDAAHRLQESLFTEIRSRLDEEGKRNGLEFLLQRIFIGSPFNLPEGYNAFPDSYCLTLAFNSNSPKQIFHPLSIVIAARDGKRASSDLVAATSIGYNFHAYGREVEPVVTESFRERVKIYADGIVDHFLTELAKKFQQN
MGSDKIHHHHHHMNDNAERRYRRPSYRITLDEQDITPRINGRLIRLRLRSQRGLEADQLDLTLSDHDGALALPRRGVSLRVAYGWQDDGLIDKGLFTVDEVQHSGTPDQITIRARSADMRGRLPGKRSRSWHDITVGEIIDTIAKRHTLEPVVGDTVRGIRIGHIDQTEESDLNFLTRLGERFDAVATVKAARLLFTQAGEALTASGLAMPSVTLTRRDGDRHRYSATDRDTYTGVIAYWNDKANAKRQRVIAGSDEDAKELRPTYATEADALDAAKAEWRRVQRGEATFKITLAYGRADILPESPLTASGFKPDIDATPWLVTEVEDSLDDNGFGTRVQCEVRGGAAET
MGSDKIHHHHHHMNDRFVCSLIEKSDLSNFVKKHSKNVFYDIAKAEAAVHQQTIDTIHFHEVGAIDSIVDIVGFFILWEQLEIEQVYSTPITDGSGTITIAHGVMPIPVPAVMELRKETNLIIQQDFEIKTELVTPTGLAIFKELSPLFVAPEQRLIEKIGYGFGKRETGKFNALRGSIFTETHSKKKRTEHHDQVLKIETNIDNQTPEQLGYVMDLLLEHGALDVFFTPIHMKKNRSAILLTVLTTTEEKEYFTELLFKHTSTIGMRFQTMERSVMDRSFKILETPFGKVHIKKNHYHGLLKESIEYQDCERIAKQYNFTIEEVYRLVQTLNNKTID
MGSDKIHHHHHHMNEFIASIKSATASLHTQLEQSEISNVIMSQLVTEKAYAEYLSRIQCMHEDIEKHTFPIIHTIIKDTAQRTKSTAIAADLDQLKYASAVNKTFLDAAHSPDLNFNLGLMYVTEGSVLGGQVILKNIKKQLGEDIASRFLNVYGQQTGHLWRSFLIQLSEYQSTLSEKEKMTIIDGAKYGFERVYSILM
MGSDKIHHHHHHMNERLRQGLVAAEGPLSGEVIKDVECVAGGCIHQAWCLQLKGGRQLFAKTGGADALPMLKVEVEGLKALKAWVDPGVLEVPEPLAFDQVCGEAVLLLPWLDFRAGNQASLGRGLALLHRASAAENPGRFGWPVDGFIGAGSQPGGWREQWGDAFVTLRLRPQLREAARWGLDLVDVEPILAALIPWLDRHQPSPSLVHGDLWSGNANVLSDGRGVLLDPATWWADREVDLAMTQLFGGFSQDFYIGYENVWPLPADASQRVEVYNLYHLINHANLFGGSYRNQSQAILNRLASWLLT
MGSDKIHHHHHHMNFLDGHLFPENQQPLIITAAPYAPGWLPSDFPEDIPVTMEEQIQKAVDCYNAGATVLHLHVRELDGKGSKRLSKFNELVAGVRKAVPEMIIQVGGSISFAPENEGQAAKWLSDDTRHMLADLEPTPDQVTVTVNTSQMNVTDHAEDADFRGTSRENPAIFNAYKEMTVPAQPGWVEEHVRRLTAKGIQSAFQCYNTNSFESVERLMRRGFYKGPLVMNWVAIGGGMDTPNVYSLGNFMRGVPDGAVVTVESNVRNVLPVNMMGIAMGLHVRCGTEDVLWNQKRTAKMSTVKQIEQLVRISHEFGREIATAKEAREISKIGVFYDTVEESLQANGFAPNRNGGTQGYLRKTR
MGSDKIHHHHHHMNGIGATPYSESQKFHIAAIILAAGFSLRMKSFKPLLPLGSASVIETAIQSFRKAGFMDIRVVLGHKAGELLPICDALGVQPILNEDYAEGMFSSVKAGVKSLGREVDGFFLLPADNPLIQADTLQRLYEGFNLGPGGIVYPVCQGKRGHPPLISRSYRDSILSWRGEGGLRALLEHYQADALEVGTEDQGVLLDMDTPEDYRTLLKHYGCAPTPTEFECYELLKGNNTPDQVIKHCETVARLSVFLGEQLSEAGLHLNRELLRTSALLHDIARLKPNHPQEGAKLTAAYPEVSAIIAAHMDCPWEPSQPLTEQEIVYLADKLVAKERIVSLQERFKGSVERHQNEPEVLEHVYRRFGQAYRIHDRVEEILGKSVQTLIKSNLGSDVHG
MGSDKIHHHHHHMNHLVEVQHMERMNRTNHIQKLDKERYLNLKTGEIGEFKQGEVRSDSLNSLRQTFKKLRYLINTNYVGAGNELFITLTYKENMTDVKRLYSDFKKFMLKFRYKYEKQYGSIDYMTVVEPQERGAWHHHLLVRFNDMTGSKMYIPNNDVAALWGHGFTNMHSLNGVDNIGAYLSAYLADVELTTDNVFLAFDDNVEVVSKVVDGQEKKFIKGGRLHLYPSGMNLYRKSKGIKMPVREEMRYGDIKKVVGSEKPHYVKTLVVEQDDFKNTITYEQYNTKR
MGSDKIHHHHHHMNIAILNHYASIPEVGSAETRHFELAKRFVREGHRVDIYIGDFSHLTGKRWSETFGWSFSKDGVDFIVVETREYTGNSLSRLLSSIDYYRNGRKKIIQKRYDVIIASSPHPFSWSLGWYYVRRKGGKFFIEIRDVWPDDLVKLGSLSYRHPVSKLFDHMCKKYYPKADGFISLVPDLSEHFNRLKVRPENFIYIPNGVDLKVFKDPEPCPVVDEVFSKVPDGKIKVVYAGSIVEHKGIKEFIETLSKVNKNLRDRFVFFFVGPSHADYLVSVKETAKDLQNVFFFDPVPKRCVPYLLQKADVLLFTLSQTVMDHPAVSSYKVVDYMASGKPVLCVDIENLPFKKTKGAVFFREDNLEEALRRIFEEDLSELGRRNREYVERERDWDRLYEKLRSFVLS
MGSDKIHHHHHHMNIGLLEALDQLEEEKGISKEEVIPILEKALVSAYRKNFGNSKNVEVVIDRNTGNIKVYQLLEVVEEVEDPATQISLEEAKKIDPLAEVGSIVKKELNVKNFGRIAAQTAKQVLIQRIRELEKEKQFEKYSELKGTVTTAEVIRVMGEWADIRIGKLETRLPKKEWIPGEEIKAGDLVKVYIIDVVKTTKGPKILVSRRVPEFVIGLMKLEIPEVENGIVEIKAIAREPGVRTKVAVASNDPNVDPIGACIGEGGSRIAAILKELKGEKLDVLKWSDDPKQLIANALAPATVIEVEILDKENKAARVLVPPTQLSLAIGKGGQNARLAAKLTGWKIDIKPIMNL
MGSDKIHHHHHHMNIKEKIAVQLYSVRKEMERDLEGTLRKMHEIGFRYVQLDGMRGNDPSEVRRLLQKYELKVIGMHIKHDRFMNDLDGIIEEAYFFDCKTVFDKYIEEEDQTTAGYTATKAALINAAEKLHPLGFRIGLHNPEYDFNECIHGRRVMDYITDPVDGICIYAEPDTYWIRAAGHDETEFIKRYSGRAPIVHMKDFLSGFELEDMDNNLVEIGQGEVDFRAIIEWGEANGVEYYCIEQDKSKRAMFETLEASYQYLLQL
MGSDKIHHHHHHMNINQLKTFIVLADCLSVTETSKRLFCTQPAVSIKIRKLEETLNTVLFERINNRLYLTEQGKIFYSYAEQIISTLEMSVEHLHQYDDPNYGKIIIGASHFVGVYLLPQVIAEYRKLSPNVELRLEILSSQQLIQGLENHSIDFIIMSDQIYFDPQKYDVNRFLSDELILIVPPDHVLATYESCHFEQLCDELFIIKPKNSQTRKFLLQQFSKDQISLLKFMEINSLEGIKRCVMNGLGVSIISRFSVENELKMGMLKAVELDSFQFKRGINYIYHKEKCLSSAIGRFIGLLNILK
MGSDKIHHHHHHMNIQQMKYVAAIANNGSFREAAKKLFITQPSLSNSIRELEEELGISLFLRTNKGAFLTEEGMVFLEQAEKVLVQMELLENRYRETVTSERFSISSQHYDFLGEVIAKVLKKYGDQYKDFRVFETTTLKVIEDVKGFHSELGIIYLNEQNSVSIERYLEQANLAYEVISTFNTHIFLGNHHPLAKQKEIHLEELVPYPQVRFNQEGSNFSYFSEDLVEIPEQESVIHTTDRGTLMNLLVETNAYASGSGVVTGFTKKEIRLVPLAPALENRICLLFPKNREISPIGRYFIKELKALFKKEVDTKTFSTKE
MGSDKIHHHHHHMNISNSQVNRLRHFVRAGLRSLFRPEPQTAVEWADANYYLPKESAYQEGRWETLPFQRAIMNAMGSDYIREVNVVKSARVGYSKMLLGVYAYFIEHKQRNTLIPAGFVAVFNSDESSWHLVEDHRGKTVYDVASGDALFISELGPLPENVTWLSPEGEFQKWNGTAWVKDAEAEKLFRIREAEETKNSLMQVASEHIAPLQDAVDLEIATEEETSLLEAWKKYRVLLNRVDTSTAPDIEWPTNPVRE
MGSDKIHHHHHHMNKINRVAIVGGTHGNEFTGAFLVKKFQQFPEVIQKPSFETLTILGNPKAFEAGKRYIEKDLNRCFLTESLQNTNLSSYEDIRAKQIAGVLGAENKPNVDVVIDLHSTTANMGLSIILGNQDPFLLKLCAYLSDINPLVKVCYTIPEKGSNFLRSLNKLGFVIEVGAVAQGVLNAELFQKTEQLIYTILDYLEQYNRGNIPKINNLLALYKFTGTVDYPRNENGDIQGMIHPDIQFRDYEPLNPGDPLFLTLDGKAIAYEGTSTVYPIFINEAAYYEKGIAMLFTEKQLINPSS
MGSDKIHHHHHHMNKKLLNKVMKKLASSNVVISPTVKSSSTSLSMQKKPETEQVQQKLEQYLLSRYHFRFNLLTEQTECCKKDADTPIYKVISQRTLNSLCLEARARHINCWDKDVSRFVNSEQMPDYHPLLSYMNTLPEWDGKDRVTPLAQRISTKDFWVNSFHRWMLGVTAQWSGRMDRCANAVAPMLVSSEQGRCKSTFCELLMPDSLKDYYTDSFELTGQAGCEQKLAFFGLINLDEYDRLSPQKLPLLKNLMQMKKLDFRKSHRSSYSHLPRMASFIGTSNRKALLTDPSGSRRYFFAEVKEKIDCSPLEHKQLFAQLKAELDEGKRYWFSAAEESELKLRNQAYYALPTEAEMILHCFRLPEKGEDFKLYSAVCLFNILLKRYPAAMRGITINKMGRIMNSLGAERMHTTTGNMYKLVALAG
MGSDKIHHHHHHMNKKPLVSVYIPTHNRAELLSNAVKSVINQTYKNIEIIICNDGSGDNTDDVVNKLQKEYKDIPFVYLKNDSPMGACFSRNRCIAAASGYYLTGLDDDDYFLPNRIESLIKVCNERKIDLVCSNLIFKDGNKLKRGKNNSGVITSIDMGYENLVGNQLLTRLSYFEDVGGFDTNFPAWQDYDLWYRIIMKFGPCIKTNEATYVMDVENDRKRISTSSKAHIGYRSFIEKHSETLSEEMKSSLFIRDLINRNKKIPLKTLLSSGRKVASFKHNMRLCFPVVNSIAAFVREIKK
MGSDKIHHHHHHMNKTVDMTVNTIYLVGGGKGGVGKSVVALALVDHLQRRGVNTVLVENDTSNPDVMRAVHEEIACASFDLDTAGGWIDMVNYCDGHRDAVVVVSTAARNQDGVTRYGATLGSTLDELGRRLVVFWVINRQRDSLELLRQFSETFPDATVHVVRNGYYGAPERFVLYQDSKLRKSIEAKGRSLDFPELADRVADDLRSHRLSVRKAVETLPIGQRAELLRWRACYDAMFSQVTDDA
MGSDKIHHHHHHMNLRQLEYFVTLSETLSFTKTAQKFFISQTAVTKQIKLLENTLDTKLFNRNKHYVELTPAGNVFLMEAKAILLRVEEATERVHLTTIGFVGLLRIGFIKGYEKTAFSDLIFQLYNKYPNISITFFRGTESELYEKVLNSELDIVFNSVKPKNIDKTLEMKLIDKYPLKVVVHPTHPLAARKSVRFEELRGETIFKYNDGQDIEVTLLMVSANMGIAVMPSYCVRYLSQSQNLMIIAVENNNFYVDIAAVWNKENNNPALLRVLQIIKEAEQ

From the DeepSol protein solubility set
